Results as given in patent US20240317847A1 (Bayer, published 2024).

T1: human IL2Ra (human, UniProt P01589 22-240, limits assumed)
T1 construct: bought protein, coated on the plate; also called hIL2RA; IL-2 receptor alpha
T1 sequence (looked up): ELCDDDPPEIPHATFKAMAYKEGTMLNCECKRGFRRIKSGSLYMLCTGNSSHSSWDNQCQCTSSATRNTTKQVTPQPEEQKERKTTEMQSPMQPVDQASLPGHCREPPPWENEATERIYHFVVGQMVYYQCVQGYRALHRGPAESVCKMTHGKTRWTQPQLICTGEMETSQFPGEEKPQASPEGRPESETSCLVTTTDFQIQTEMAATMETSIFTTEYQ

T2: human IL-11 (human, UniProt P20809 22-199)
T2 sequence: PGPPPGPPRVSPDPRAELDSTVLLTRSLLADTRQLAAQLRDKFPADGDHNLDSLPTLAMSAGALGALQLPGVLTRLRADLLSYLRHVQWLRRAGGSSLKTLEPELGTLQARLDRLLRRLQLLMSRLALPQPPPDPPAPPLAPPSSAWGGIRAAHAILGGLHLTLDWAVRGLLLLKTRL

T3: murine IL-11 (mouse, UniProt P47873 22-199)
T3 sequence: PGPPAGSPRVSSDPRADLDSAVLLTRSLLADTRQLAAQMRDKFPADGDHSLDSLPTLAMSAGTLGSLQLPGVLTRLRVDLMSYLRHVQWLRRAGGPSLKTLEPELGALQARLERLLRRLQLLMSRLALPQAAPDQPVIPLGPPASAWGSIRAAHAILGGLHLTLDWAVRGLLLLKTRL

B1: TPP-26302 (antibody, V domains shown)
VH: EVQLLESGGGLVQPGGSLRLSCAASGFTFSSYGMHWVRQAPGKGLEWVSVISYDGSYKYYADSVKGRFTISRDNSKNTLYLQMNSLRAEDTAVYYCAAGVPDYWGQGTLVTVSS
VL: QSVLTQPPSASGTPGQRVTISCTGSSSNIGAGYDVHWYQQLPGTAPKLLIYSNNERPSGVPDRFSGSKSGTSASLAISGLRSEDEADYYCSAWDDSLNGPVFGGGTKLTVL
B2: TPP-26311 (antibody, V domains shown)
VH: EVQLLESGGGLVQPGGSLRLSCAASGFTFSSYGMHWVRQAPGKGLEWVSVISYDGSYKYYADSVKGRFTISRDNSKNTLYLQMNSLRAEDTAVYYCAAGVPDYWGQGTLVTVSS
VL: QSVLTQPPSASGTPGQRVTISCTGSSSNIGAGYDHHWYQQLPGTAPKLLIYSNNERPSGVPDRFSGSKSGTSASLAISGLRSEDEADYYCAAWDDSLNGPVFGGGTKLTVL
B3: TPP-26306 (antibody, V domains shown)
VH: EVQLLESGGGLVQPGGSLRLSCAASGFTFSSYGMHWVRQAPGKGLEWVSVISYDGSYKYYADSVKGRFTISRDNSKNTLYLQMNSLRAEDTAVYYCAAGVPDYWGQGTLVTVSS
VL: QSVLTQPPSASGTPGQRVTISCTGSSSNIGAGYDVHWYQQLPGTAPKLLIYSNNERPSGVPDRFSGSKSGTSASLAISGLRSEDEADYYCAAWDQSLNGPVFGGGTKLTVL
B4: TPP-26309 (antibody, V domains shown)
VH: EVQLLESGGGLVQPGGSLRLSCAASGFTFSSYGMHWVRQAPGKGLEWVSVISYDGSYKYYADSVKGRFTISRDNSKNTLYLQMNSLRAEDTAVYYCAAGVPDYWGQGTLVTVSS
VL: QSVLTQPPSASGTPGQRVTISCTGSSSNIGAGYDVHWYQQLPGTAPKLLIYSNNERPSGVPDRFSGSKSGTSASLAISGLRSEDEADYYCAAWDFSLNGPVFGGGTKLTVL
B5: TPP-26308 (antibody, V domains shown)
VH: EVQLLESGGGLVQPGGSLRLSCAASGFTFSSYGMHWVRQAPGKGLEWVSVISYDGSYKYYADSVKGRFTISRDNSKNTLYLQMNSLRAEDTAVYYCAAGVPDYWGQGTLVTVSS
VL: QSVLTQPPSASGTPGQRVTISCTGSSSNIGAGYDVHWYQQLPGTAPKLLIYSNNERPSGVPDRFSGSKSGTSASLAISGLRSEDEADYYCAAWDVSLNGPVFGGGTKLTVL
B6: TPP-26303 (antibody, V domains shown)
VH: EVQLLESGGGLVQPGGSLRLSCAASGFTFSSYGMHWVRQAPGKGLEWVSVISYDGSYKYYADSVKGRFTISRDNSKNTLYLQMNSLRAEDTAVYYCAAGVPDYWGQGTLVTVSS
VL: QSVLTQPPSASGTPGQRVTISCTGSSSNIGAGYDVHWYQQLPGTAPKLLIYSNNERPEGVPDRFSGSKSGTSASLAISGLRSEDEADYYCAAWDDSLNGPVFGGGTKLTVL
B7: TPP-26310 (antibody, V domains shown)
VH: EVQLLESGGGLVQPGGSLRLSCAASGFTFSSYGMHWVRQAPGKGLEWVSVISYDGSYKYYADSVKGRFTISRDNSKNTLYLQMNSLRAEDTAVYYCAAGVPDYWGQGTLVTVSS
VL: QSVLTQPPSASGTPGQRVTISCTGSSSNIGAGYDVHWYQQLPGTAPKLLIYSNNERPWGVPDRFSGSKSGTSASLAISGLRSEDEADYYCAAWDDSLNGPVFGGGTKLTVL
B8: TPP-26315 (antibody, V domains shown)
VH: EVQLLESGGGLVQPGGSLRLSCAASGFTFSSYGMHWVRQAPGKGLEWVSVISYDGSYKYYADSVKGRFTISRDNSKNTLYLQMNSLRAEDTAVYYCAAGVPDYWGQGTLVTVSS
VL: QSVLTQPPSASGTPGQRVTISCTGSSSNIGAHYDVHWYQQLPGTAPKLLIYSNNERPSGVPDRFSGSKSGTSASLAISGLRSEDEADYYCAAWDDSLNGPVFGGGTKLTVL
B9: TPP-26304 (antibody, V domains shown)
VH: EVQLLESGGGLVQPGGSLRLSCAASGFTFSSYGMHWVRQAPGKGLEWVSVISYDGSYKYYADSVKGRFTISRDNSKNTLYLQMNSLRAEDTAVYYCAAGVPDYWGQGTLVTVSS
VL: QSVLTQPPSASGTPGQRVTISCTGSSSNIWAGYDVHWYQQLPGTAPKLLIYSNNERPSGVPDRFSGSKSGTSASLAISGLRSEDEADYYCAAWDDSLNGPVFGGGTKLTVL
B10: TPP-26314 (antibody, V domains shown)
VH: EVQLLESGGGLVQPGGSLRLSCAASGFTFSSYGMHWVRQAPGKGLEWVSVISYDGSYKYYADSVKGRFTISRDNSKNTLYLQMNSLRAEDTAVYYCAAGVPDYWGQGTLVTVSS
VL: QSVLTQPPSASGTPGQRVTISCTGSSSNIGAGYDVHWYQQLPGTAPKLLIYSNNERPSGVPDRFSGSKSGTSASLAISGLRSEDEADYYCAAWDWSLNGPVFGGGTKLTVL
B11: TPP-26307 (antibody, V domains shown)
VH: EVQLLESGGGLVQPGGSLRLSCAASGFTFSSYGMHWVRQAPGKGLEWVSVISYDGSYKYYADSVKGRFTISRDNSKNTLYLQMNSLRAEDTAVYYCAAGVPDYWGQGTLVTVSS
VL: QSVLTQPPSASGTPGQRVTISCTGSSSNIGAGYDVHWYQQLPGTAPKLLIYSNNERPSGVPDRFSGSKSGTSASLAISGLRSEDEADYYCAAWDISLNGPVFGGGTKLTVL
B12: TPP-26313 (antibody, V domains shown)
VH: EVQLLESGGGLVQPGGSLRLSCAASGFTFSSYGMHWVRQAPGKGLEWVSVISYDGSYKYYADSVKGRFTISRDNSKNTLYLQMNSLRAEDTAVYYCAAGVPDYWGQGTLVTVSS
VL: QSVLTQPPSASGTPGQRVTISCTGSSSNIGAYYDVHWYQQLPGTAPKLLIYSNNERPSGVPDRFSGSKSGTSASLAISGLRSEDEADYYCAAWDDSLNGPVFGGGTKLTVL

Experiments:
human IL2Ra = biological target: T1, human IL2Ra; test: IL2Ra direct binding ELISA, signal ratio to isotype control
Protocol: IL2RA (Peprotech, Germany, #200-02RC) was coated at 1 or 0 μg/ml (buffer only control) in 30 μl coating buffer (Candor, #113500) per well on a 384 well microtiter plate (Maxisorb, Nunc, #460518) over night at 4-8° C. After two washes with 50 μl/well washing buffer (PBS+0.05% Tween, pH 7.4), the plates were incubated for two hours at room temperature with 50 μl/well SmartBlock (Candor, #113500). After blocking, the plates were washed three times with washing buffer. Then, a dilution series of the respective antibody (1E-7 [M] down to 2E-13 [M]) in PBS+0.05% Tween, 10% SmartBlock were added in 30 μl to the microtiter plate and incubated for 90 min at room temperature. After three additional washes, 30 μl anti mouse IgG HRP-conjugated antibody (Biotechne, HAF007), diluted 1:1000 in PBS+0.05% Tween (pH 7.4), were added per well and incubated for one hour. After three additional washes, a mixture of Amplex red (Invitrogen, #12222, 10 mM stock solution in DMSO) 1:1000 diluted in PBS and H2O2 (30%, Merck, #107209)) diluted 1:10000 in PBS were added as substrate with 30 μl per well and incubated for 20 min in the dark. Relative fluorescence was measured with a microtiter plate reader at 535/590 nm.
Next, the 42 antibodies were subjected to an IL2Ra binding ELISA as described in Example 20.

human IL-11 = biological target: T2, human IL-11; test: cell-based or functional assay
murine IL-11 = biological target: T3, murine IL-11; test: cell-based or functional assay

Binder	hIL2RA ELISA Binding: Ratio to Isotpye (human IL2Ra) [ratio]	RGA Efficacy (%) (human IL-11)	RGA IC50 (human IL-11) [nM]	RGA Efficacy (%) (murine IL-11)	RGA IC50 (murine IL-11) [nM]
B1	522	65.8	22	94.3	1.1
B2	292	38.1	1.9	86.2	2.2
B3	232	70	2.2	96.4	1.5
B4	234	63.9	1.5	92.2	0.94
B5	188	63.6	5.9	91.6	1.3
B6	481	70.2	22	95.7	2.3
B7	231	59.5	4.5	94.3	1.1
B8	205	68.3	1.7	91.5	1.5
B9	436	70.4	5.9	95.2	1.2
B10	455	69.3	1.1	94.4	0.8
B11	176	52.7	5.3	92.3	1.9
B12	195	76.1	1.7	96.2	0.66
